In PMC3737549:

Target: RORγ-mCherry (UniProt P51450)
UniProt P51450, sequence (P51450 whole entry): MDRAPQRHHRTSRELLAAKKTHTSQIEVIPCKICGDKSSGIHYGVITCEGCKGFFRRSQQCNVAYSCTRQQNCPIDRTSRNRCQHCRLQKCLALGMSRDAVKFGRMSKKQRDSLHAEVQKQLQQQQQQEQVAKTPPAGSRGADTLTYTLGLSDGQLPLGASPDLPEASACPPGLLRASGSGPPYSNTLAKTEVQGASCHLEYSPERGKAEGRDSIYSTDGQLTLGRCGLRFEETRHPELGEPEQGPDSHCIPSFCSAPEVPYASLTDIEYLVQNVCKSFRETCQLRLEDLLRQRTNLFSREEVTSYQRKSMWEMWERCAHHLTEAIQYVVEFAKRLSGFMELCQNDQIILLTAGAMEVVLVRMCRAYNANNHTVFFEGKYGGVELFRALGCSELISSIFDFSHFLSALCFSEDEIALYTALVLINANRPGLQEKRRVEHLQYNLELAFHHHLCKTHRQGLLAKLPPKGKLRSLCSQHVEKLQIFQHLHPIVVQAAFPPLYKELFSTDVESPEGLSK

nuclear localisation of PΔN106 in COS-1 cells: percent of cells with the mutant principally in the nucleus on co-expression with RORγ (50% when expressed alone) (% of the cells)	nuclear localisation of PΔC636 in COS-1 cells: percent of cells with the mutant predominantly in the nucleus on co-expression with RORγ (6% when expressed alone) (% of the cells)	Binder
90		Myc-Prox1 PΔN106 (domain or fragment) TEPSFQASGLSSTGSEVHQEDICSNSSRDSPPECLSPFGRPTMSQFDVDRLCDEHLRAKRARVENIIRGMSHSPSVALRGNENEREMAPQSVSPRESYRENKRKQKLPQQQQQSFQQLVSARKEQKREERRQLKQQLEDMQKQLRQLQEKFYQVYDSTDSENDEDGDLSEDSMRSEILDARAQDSVGRSDNEMCELDPGQFIDRARALIREQEMAENKPKREGSNKERDHGPNSLQPEGKHLAETLKQELNTAMSQVVDTVVKVFSAKPSRQVPQVFPPLQIPQARFAVNGENHNFHTANQRLQCFGDVIIPNPLDTFGSVQMPSSTDQTEALPLVVRKNSSEQSASGPATGGHHQPLHQSPLSATAGFTTPSFRHPFPLPLMAYPFQSPLGAPSGSFSGKDRASPESLDLTRDTTSLRTKMSSHHLSHHPCSPAHPPSTAEGLSLSLIKSECGDLQDMSDISPYSGSAMQEGLSPNHLKKAKLMFFYTRYPSSNMLKTYFSDVKFNRCITSQLIKWFSNFREFYYIQMEKYARQAINDGVTSTEELSITRDCELYRALNMHYNKANDFEVPERFLEVAQITLREFFNAIIAGKDVDPSWKKAIYKVICKLDSEVPEIFKSPNCLQELLHE
	80	Myc-Prox1 PΔC636 (domain or fragment) MPDHDSTALLSRQTKRRRVDIGVKRTVGTASAFFAKARATFFSAMNPQGSEQDVEYSVVQHADGEKSNVLRKLLKRANSYEDAMMPFPGATIISQLLKNNMNKNGGTEPSFQASGLSSTGSEVHQEDICSNSSRDSPPECLSPFGRPTMSQFDVDRLCDEHLRAKRARVENIIRGMSHSPSVALRGNENEREMAPQSVSPRESYRENKRKQKLPQQQQQSFQQLVSARKEQKREERRQLKQQLEDMQKQLRQLQEKFYQVYDSTDSENDEDGDLSEDSMRSEILDARAQDSVGRSDNEMCELDPGQFIDRARALIREQEMAENKPKREGSNKERDHGPNSLQPEGKHLAETLKQELNTAMSQVVDTVVKVFSAKPSRQVPQVFPPLQIPQARFAVNGENHNFHTANQRLQCFGDVIIPNPLDTFGSVQMPSSTDQTEALPLVVRKNSSEQSASGPATGGHHQPLHQSPLSATAGFTTPSFRHPFPLPLMAYPFQSPLGAPSGSFSGKDRASPESLDLTRDTTSLRTKMSSHHLSHHPCSPAHPPSTAEGLSLSLIKSECGDLQDMSDISPYSGSAMQEGLSPNHLKKAKLMFFYTRYPSSNMLKTYFSDVKFNRCITSQLIKWFSNFREFYYIQME
